The target of data set [1] is T1, Chlorella sorokiniana chloroplastic NADP-specific glutamate dehydrogenase (NADP-GDH) α-homohexamer, native (mature α-subunit SEQ ID NO. 24) (Chlorella sorokiniana, UniProt P28998, E496R/E82D/G270P/L83V).
T1 construct: endogenous in cells; host or cells: Chlorella sorokiniana (UTEX-1230; 3B2NA), cultured in 29 mM ammonium medium; enzyme purified from the cells
T1 sequence (P28998 with tags, fused parts or gaps E82D/L83V/G270P/E496R): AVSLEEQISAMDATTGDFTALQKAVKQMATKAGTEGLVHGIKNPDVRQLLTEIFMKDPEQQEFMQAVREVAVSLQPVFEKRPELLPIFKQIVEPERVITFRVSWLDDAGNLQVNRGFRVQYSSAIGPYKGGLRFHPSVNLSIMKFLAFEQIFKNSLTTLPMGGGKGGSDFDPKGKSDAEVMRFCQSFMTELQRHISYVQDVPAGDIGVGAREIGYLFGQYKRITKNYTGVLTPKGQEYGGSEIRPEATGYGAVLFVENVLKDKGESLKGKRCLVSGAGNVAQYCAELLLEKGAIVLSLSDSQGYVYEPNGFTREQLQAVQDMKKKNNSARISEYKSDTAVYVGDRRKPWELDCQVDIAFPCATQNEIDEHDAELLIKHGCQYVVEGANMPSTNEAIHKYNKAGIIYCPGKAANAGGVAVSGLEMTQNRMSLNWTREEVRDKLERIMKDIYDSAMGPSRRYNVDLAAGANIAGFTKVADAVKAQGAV
As to the kind of experiment: Km values, aminating reaction, α-homohexameric isoenzyme. The class given is biochemical. As to conditions: NH4^+ range, depending on the NADPH concentration (b9). From the text: (§1) The chloroplastic glutamate dehydrogenase α- and β-isoenzymes used in the following experiments are naturally produced by an organism characterized as Chlorella sorokiniana.
(§2) C. sorokiniana culture conditions. For kinetic characterization in both the aminating and deaminating directions, the α- and β-holoenzymes were purified from cells that were accumulating only one form of homohexameric GDH isoenzyme.
(§3) The C. sorokiniana cells (UTEX-1230, University of Texas algal culture collection; 3B2NA, Robert R. Schmidt, University of Florida, Microbiology Cell Science Department) were cultured autotrophically as previously described by Prunkard et al., supra in a modified basal salts medium. […]
(§4) For preparative nondenaturing PAGE, a 3 cm tall 7% acrylamide (w/v, 28 acrylamide: 0.735 bis-acrylamide, pH 8.8) resolving gel, and a 2 cm tall 2% acrylamide (w/v, 1.6 acrylamide: 0.4 bis-acrylamide, pH 6.6) stacking gel were cast in the 28 mm ID gel tube of the Model 491 Prep Cell. […] The enzyme in the pooled fractions in 10 mM KPO4 (pH 6.2), 0.1 mM NADP^+ was concentrated by Diaflow ultrafiltration to 1 mg/mL as determined by the method of Bradford, using BSA as a standard. […] The purity of the preparation was determined by silver-staining to visualize proteins resolved by 10% (w/v) Tris-Tricine SDS-PAGE (Schagger, H., G. von Jagow [1987] Anal. Biochem. 166:368-379). […]

The target in data set [2] is T2, Chlorella sorokiniana chloroplastic NADP-specific glutamate dehydrogenase (NADP-GDH) β-homohexamer, native (mature β-subunit SEQ ID NO. 26) (Chlorella sorokiniana, UniProt P28998, E496R/E82D/G270P/L83V).
T2 construct: endogenous in cells; host or cells: Chlorella sorokiniana (UTEX-1230; 3B2NA), cells cultured in 1 mM or 29 mM ammonium medium; enzyme purified from the cells
T2 sequence (P28998 49-523 E82D/L83V/G270P/E496R): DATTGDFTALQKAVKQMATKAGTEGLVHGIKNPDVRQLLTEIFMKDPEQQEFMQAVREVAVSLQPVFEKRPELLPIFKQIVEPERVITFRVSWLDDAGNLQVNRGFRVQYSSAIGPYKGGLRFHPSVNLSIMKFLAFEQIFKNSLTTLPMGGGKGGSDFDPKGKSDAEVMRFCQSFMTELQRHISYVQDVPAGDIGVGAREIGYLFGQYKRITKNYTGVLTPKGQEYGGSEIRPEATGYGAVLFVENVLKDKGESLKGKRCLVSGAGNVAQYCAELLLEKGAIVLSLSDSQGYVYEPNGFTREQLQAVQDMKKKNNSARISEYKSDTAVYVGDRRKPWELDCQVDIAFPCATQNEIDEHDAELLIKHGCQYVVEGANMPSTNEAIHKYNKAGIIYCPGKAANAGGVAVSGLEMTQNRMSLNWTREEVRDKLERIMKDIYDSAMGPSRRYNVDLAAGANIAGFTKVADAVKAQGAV
Put plainly: Km values, aminating reaction, β-homohexameric isoenzyme. The data set is classed as biochemical.
From the text: as §1, §2, §3
(§5) The NADP-GDH β-isoenzyme was purified from a mixture of cells cultured for 240 minutes in 1 mM ammonium medium (14 g), 90 minutes in 1 mM ammonium medium (6 g), and for 20, 40, 60, and 80 minutes in 29 mM ammonium medium (1 g/time point) according to Bascomb and Schmidt, supra. […] The NADP-GDH in the pooled fractions was concentrated via Diaflow ultrafiltration to 2 mg/ml protein, as determined by the method of Bradford (Bradford, M. M. [1976] Anal. Biochem. 72:248-254), and stored at 4° C. until further use. After resolution of the proteins by 8% (w/v) Tris-Tricine SDS-PAGE, the purity of the preparation was determined by silver staining. […]

Data set [3] deals with T2, Chlorella sorokiniana chloroplastic NADP-specific glutamate dehydrogenase (NADP-GDH) β-homohexamer, native (mature β-subunit SEQ ID NO. 26). As to conditions: β-homohexamer purified from Chlorella cells (catabolic form), non-allosteric; read-out: ammonium Km; cited from earlier work.
Substrate in data set [4]: NC(=O)C1=CN([C@@H]2O[C@H](COP(=O)(O)OP(=O)(O)OC[C@H]3O[C@@H](n4cnc5c(N)ncnc54)[C@H](OP(=O)(O)O)[C@@H]3O)[C@@H](O)[C@H]2O)C=CC1
Put plainly: Km values, aminating reaction, α-homohexameric isoenzyme. The data set is classed as biochemical, Chlorella sorokiniana. The note with it: other: α-homohexamer, 38.5 °C.
From the text: as §1, §2, §3, §4

Substrate in data set [5]: NC(=O)c1ccc[n+]([C@@H]2O[C@H](COP(=O)([O-])OP(=O)(O)OC[C@H]3O[C@@H](n4cnc5c(N)ncnc54)[C@H](OP(=O)(O)O)[C@@H]3O)[C@@H](O)[C@H]2O)c1
Put plainly: Km values, deaminating reaction, α-homohexameric isoenzyme. As to conditions: other: α-homohexamer, 38.5 °C. The data set is classed as biochemical, Chlorella sorokiniana.
From the text: as §1, §2, §3, §4

Substrate in data set [6]: N[C@@H](CCC(=O)O)C(=O)O
The description is as above. As to conditions: other: α-homohexamer, 38.5 °C. The data set is classed as biochemical, Chlorella sorokiniana.
From the text: as §1, §2, §3, §4

Substrate in data set [7]: O=C(O)CCC(=O)C(=O)O
Put plainly: purified protein, by the assay type. The note with it: other: β-homohexamer, aminating reaction; 38.5 °C.

Substrate in data set [8]: NC(=O)C1=CN([C@@H]2O[C@H](COP(=O)(O)OP(=O)(O)OC[C@H]3O[C@@H](n4cnc5c(N)ncnc54)[C@H](OP(=O)(O)O)[C@@H]3O)[C@@H](O)[C@H]2O)C=CC1
As to the kind of experiment: Km values, aminating reaction, β-homohexameric isoenzyme. The note with it: other: β-homohexamer, 38.5 °C. The class given is biochemical, Chlorella sorokiniana.
From the text: as §1, §2, §3, §5

Substrate in data set [9]: NC(=O)c1ccc[n+]([C@@H]2O[C@H](COP(=O)([O-])OP(=O)(O)OC[C@H]3O[C@@H](n4cnc5c(N)ncnc54)[C@H](OP(=O)(O)O)[C@@H]3O)[C@@H](O)[C@H]2O)c1
Put plainly: Km values, deaminating reaction, β-homohexameric isoenzyme. The class given is biochemical, Chlorella sorokiniana. The note with it: other: β-homohexamer, 38.5 °C.
From the text: as §1, §2, §3, §5

Substrate in data set [10]: N[C@@H](CCC(=O)O)C(=O)O
Described as above. The data set is classed as biochemical, Chlorella sorokiniana. The note with it: other: β-homohexamer, 38.5 °C.
From the text: as §1, §2, §3, §5

Like-named read-outs stand apart in the source and are kept apart here.

We go through three molecules from US7485771B2, “Polypeptides and polynucleotides relating to the α- and β-subunits of glutamate dehydrogenases and methods of use” (University of Florida Research Foundation, Inc., priority 1995, dated 2009).

The term Km denotes the substrate concentration at which the rate is half of its maximum.

For the molecule `N` [NH4^+, ammonium], the Km in data set [1] is 0.02 to 3.5 mM; in [2] it was 77 mM; in [3] it was about 75 mM.

B1: Chlorella sorokiniana chloroplastic NADP-specific glutamate dehydrogenase (NADP-GDH) α-homohexamer, native (mature α-subunit SEQ ID NO. 24) (Chlorella … (protein)
chain: T1 sequence (P28998 with tags, fused parts or gaps E82D/L83V/G270P/E496R)
notes: endogenous in cells; host or cells: Chlorella sorokiniana (UTEX-1230; 3B2NA), cultured in 29 mM ammonium medium; enzyme purified from the cells
In the case of B1, the results for the Km in [4], in data set [5] and in [6] were 0.14 mM, 0.04 mM and 38.2 mM, respectively.

B2: Chlorella sorokiniana chloroplastic NADP-specific glutamate dehydrogenase (NADP-GDH) β-homohexamer, native (mature β-subunit SEQ ID NO. 26) (Chlorella … (protein)
chain: T2 sequence (P28998 49-523 E82D/L83V/G270P/E496R)
notes: endogenous in cells; host or cells: Chlorella sorokiniana (UTEX-1230; 3B2NA), cells cultured in 1 mM or 29 mM ammonium medium; enzyme purified from the cells
With B2, the Km in [7] came out at 12 mM; in data set [8], 0.14 mM; in [9] it was 0.04 mM; in data set [10], 32.3 mM.
